From patent publication US20060188956A1, “Relaxin3-gpcr135 complexes and their production and use” (priority 2003, published 2006)

Columns and labels:
GPCR135 [1] = molecular target: T1, GPCR135 (Homo sapiens, UniProt Q9NSD7); experiment: Intracellular cAMP accumulation assay in CHO-K1 cells; format: cell-based; set-up: primers complementary to the putative translation start and stop sites of the GPCR135 open reading frame; expressed in transfected cells; host or cells: CHO-K1 (transient, pCIneo vector); isolated cell membranes
T1 sequence (Q9NSD7 1-469): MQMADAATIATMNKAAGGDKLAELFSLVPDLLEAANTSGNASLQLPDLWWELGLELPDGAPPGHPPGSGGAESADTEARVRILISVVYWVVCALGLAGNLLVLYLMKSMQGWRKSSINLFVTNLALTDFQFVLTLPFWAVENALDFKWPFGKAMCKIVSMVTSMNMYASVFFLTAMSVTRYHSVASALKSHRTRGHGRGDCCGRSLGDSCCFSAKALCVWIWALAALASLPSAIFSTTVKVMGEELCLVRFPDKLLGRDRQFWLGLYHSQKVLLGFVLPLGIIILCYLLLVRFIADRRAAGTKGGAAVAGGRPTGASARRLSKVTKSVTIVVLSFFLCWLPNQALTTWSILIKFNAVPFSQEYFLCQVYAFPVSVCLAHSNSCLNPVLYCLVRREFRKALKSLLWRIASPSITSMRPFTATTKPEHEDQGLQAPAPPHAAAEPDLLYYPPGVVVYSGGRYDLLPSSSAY
Method: CHO-K1 cells stably expressing human GPCR135 (GPCR135) and un-transfected CHO-K1 cells (Control) were used for cAMP accumulation assays. Cells were treated with different stimulants as indicated. cAMP accumulated in the cells was extracted by HCl and the concentration of cAMP was measured by a ELISA kit (NEN) using ^125I-labeled cAMP and Flash plates.
CHO-K1 cells stably expressing human GPCR135 were established by transfection of GPCR135 expressing plasmid into CHO-K1 (ATCC# CCL-61) cells and culturing the transfected cells under selection of G418 (400 mg/L). The receptor expressing cells were seeded in 96-well plates at a cell density of 30,000 cells/well. Twenty-four hours later, cell culture medium was replaced with DMEM-F12 plus 2 mM IBMX (sigma). A different test compound for cAMP stimulation was added to each well. The reactions were incubated at room temperature for 20 min. Twenty micro-liters of 0.5 N HCl was added to each well to stop the reaction and extract the accumulated cAMP. The cAMP concentration was measured using a cAMP ELISA kit (NEN).

rat GPCR135 = experiment: Radioligand binding assay in transfected COS-7 cells; conditions: COS-7 cells transfected with rat GPCR135 (long and short form); competitor 1 μM unlabeled relaxin3
rat GPCR135, sequence (as listed by the source): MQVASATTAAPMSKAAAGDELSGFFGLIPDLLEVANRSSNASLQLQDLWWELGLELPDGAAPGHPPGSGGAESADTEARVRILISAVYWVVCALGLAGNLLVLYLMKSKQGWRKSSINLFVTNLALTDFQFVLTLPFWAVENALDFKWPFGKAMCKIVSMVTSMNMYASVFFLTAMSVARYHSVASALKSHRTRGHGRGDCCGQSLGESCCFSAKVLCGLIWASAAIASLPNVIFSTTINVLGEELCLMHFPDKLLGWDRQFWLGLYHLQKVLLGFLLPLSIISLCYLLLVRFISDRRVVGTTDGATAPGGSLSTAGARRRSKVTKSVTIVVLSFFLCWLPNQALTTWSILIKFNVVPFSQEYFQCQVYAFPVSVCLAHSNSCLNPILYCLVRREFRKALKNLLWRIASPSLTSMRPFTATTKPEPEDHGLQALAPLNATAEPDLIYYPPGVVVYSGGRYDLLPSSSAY
Method: (§1) COS7 cells, either untransfected (NC) or transfected with pcDNA3.1 (the vector control), human GPCR135 (hGPCR135), mouse GPCR135 (mGPCR135), rat GPCR135 long form (rGPCR135L), and rat GPCR135 short form (rGPCR135s) respectively, were used for binding assays using ^125I-labeled human relaxin3 either in the present (“Competition”) or absence (“Total Binding”) of 1 µM of unlabeled human relaxin3 as the competitor.
(§2) COS-7 cells in 6-well tissue culture plates were transfected by GPCR135 expressing plasmid using LipofectAmine. Two days after transfection, cells were washed with binding buffer: DMEM plus 50 mM Hepes, pH 7.2 and 1% BSA. ^125I-label human relaxin3 was added to each well in 1 ml of binding buffer at presence or absence 1 μM of unlabeled relaxin as competitor. The binding assays were carried out at room temperature for one hour and the unbound ligand was washed away by ice-cold PBS. The bound ^125I-relaxin3 was counted in a gamma counter.

mouse GPCR135 = molecular target: T2, mouse GPCR135 (Mus musculus, UniProt Q8BGE9); experiment: as above; conditions: COS-7 cells transfected with mouse GPCR135; competitor 1 μM unlabeled relaxin3
T2 construct: Mouse GPCR135 coding region was PCR amplified from mouse genomic DNA; expressed in transfected cells; host or cells: COS-7 (ATCC CRL-1651), transient
T2 sequence (Q8BGE9 1-472): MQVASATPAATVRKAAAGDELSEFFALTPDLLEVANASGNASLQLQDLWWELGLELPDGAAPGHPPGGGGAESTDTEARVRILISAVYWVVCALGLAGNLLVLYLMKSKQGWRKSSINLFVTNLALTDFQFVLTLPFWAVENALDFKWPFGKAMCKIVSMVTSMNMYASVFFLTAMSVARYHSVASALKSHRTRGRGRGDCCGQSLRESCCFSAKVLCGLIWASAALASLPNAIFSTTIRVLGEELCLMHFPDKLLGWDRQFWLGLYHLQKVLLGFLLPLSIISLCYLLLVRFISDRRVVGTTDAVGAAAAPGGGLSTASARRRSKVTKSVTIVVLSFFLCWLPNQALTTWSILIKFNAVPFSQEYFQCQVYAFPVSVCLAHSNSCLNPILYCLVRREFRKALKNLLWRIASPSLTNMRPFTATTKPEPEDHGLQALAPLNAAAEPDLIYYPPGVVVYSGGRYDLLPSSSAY
Method: as §1, §2

GPCR135 [2] = molecular target: T1, GPCR135; experiment: as above; conditions: COS-7 cells transfected with human GPCR135; competitor 1 μM unlabeled relaxin3
Method: as §1, §2

GPCR135 [3] = molecular target: T1, GPCR135; conditions: transient expression in Cos-1 cells; cited from earlier work
LGR7 = molecular target: T3, LGR7 (Homo sapiens, UniProt Q9HBX9); conditions: cited from earlier work
T3 sequence (Q9HBX9 1-757): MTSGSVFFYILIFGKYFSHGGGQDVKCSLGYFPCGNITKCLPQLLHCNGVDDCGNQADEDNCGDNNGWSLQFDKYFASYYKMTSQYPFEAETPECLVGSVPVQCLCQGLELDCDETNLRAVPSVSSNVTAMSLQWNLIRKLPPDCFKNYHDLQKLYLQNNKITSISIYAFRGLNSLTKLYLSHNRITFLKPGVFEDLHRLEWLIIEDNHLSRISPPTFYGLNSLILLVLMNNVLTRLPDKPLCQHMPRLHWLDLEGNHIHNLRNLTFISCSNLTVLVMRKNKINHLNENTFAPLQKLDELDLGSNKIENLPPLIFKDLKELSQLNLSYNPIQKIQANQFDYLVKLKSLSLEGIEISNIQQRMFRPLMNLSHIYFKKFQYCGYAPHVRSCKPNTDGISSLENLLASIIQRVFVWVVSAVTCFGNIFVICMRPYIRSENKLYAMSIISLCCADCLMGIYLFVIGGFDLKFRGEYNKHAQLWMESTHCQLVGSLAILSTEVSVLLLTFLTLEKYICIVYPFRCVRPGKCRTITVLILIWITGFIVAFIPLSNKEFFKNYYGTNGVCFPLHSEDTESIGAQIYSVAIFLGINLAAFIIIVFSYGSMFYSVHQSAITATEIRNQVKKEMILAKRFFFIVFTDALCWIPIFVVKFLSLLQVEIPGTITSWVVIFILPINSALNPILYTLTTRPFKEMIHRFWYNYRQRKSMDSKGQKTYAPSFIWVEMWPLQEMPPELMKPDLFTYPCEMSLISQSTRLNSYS

GPCR135 [4] = molecular target: T1, GPCR135; experiment: GTPγS binding assay with GPCR135 expressing cell membranes; format: biochemical; set-up: primers complementary to the putative translation start and stop sites of the GPCR135 open reading frame; expressed in transfected cells; host or cells: CHO-K1 (transient, pCIneo vector); isolated cell membranes; conditions: GPCR135 expressing cell membrane
Method: Frozen rat brains (5 g) were homogenized at −30° C. in 40 ml ethanol/HCl (ethanol to 0.8M HCl ratio at 3:1). The homogenate was extracted at 4° C. for 2 hr and then centrifuged at 4° C. at 20,000 g for 30 min. The supernatant was loaded onto a 2 ml SP-Sephadex C-25 column (Amersham), washed with 1 M acetic acid and eluted with 2 M pyridine and 1 M acetic acid. The eluted fraction was loaded onto a 6 ml C-18 BondElut column, washed with 0.1% TFA and eluted with 60% acetonitrile and 0.1% TFA. The eluted peptides were lyophilized, reconstituted in water, and tested for GPCR135 ligand activity using GTPγS binding assay as described in Example 5.
The expression vector was transfected into COS-7 cells using LipofectAmine (Invitrogen). Three days after the transfection, the supernatants of the transfected cells were collected, the pH was adjusted to 3.0 and loaded onto a Sephadex C-25 cation exchange column. The column was washed with 1 M acetic acid and eluted with 2 M pyridine and 1 M acetic acid. The eluted proteins were loaded on a C-18 BondElut column, washed with 0.1% TFA, and eluted with 60% acetonitrile and 0.1% TFA. […]
GPCR135 expression vector was transfected into CHO-K1 cells using Lipofectamine (Invitrogen). […] Microscint-40 (Packard) was added to each well and the plate was counted on a top counter (TopCount NTX, Packard).

GPCR135 [5] = molecular target: T1, GPCR135; experiment: Ca2+ mobilization assay (FLIPR) in HEK293 cells co-expressing GPCR135 and Gqi5; format: cell-based; set-up: primers complementary to the putative translation start and stop sites of the GPCR135 open reading frame; expressed in transfected cells; host or cells: HEK293 (ATCC CRL-1573), transient co-transfection with Gqi5
Method: Using LipofectAmine, human embryonic kidney (HEK) 293 cells were co-transfected with a plasmid expressing GPCR135 receptor and a plasmid expressing Gqi5, a mutant G-protein that translates the activation of GPCR135 into an increased intracellular Ca^2+, or increased Ca^2+ mobilization (Conklin et al., 1993, Nature 363: 274-276). Two days after transfection, cells were detached with PBS plus 10 mM EDTA, pH 8.0. The detached cells were washed with DMEM-F12 medium (without phenol red, Invitrogen) and seeded in black poly-D lysine coated 96-well plates at a cell density of 50,000 cell/well. Calcium dye, Fluo-3 (AM) (TEFLABS, Austin, Tex.) was loaded into the cells and ligand stimulated calcium mobilization was monitored using FLIPR (Molecular Device).
HEK293 cells, untransfected (293 Control) or transfected by Gqi5 (293/Gqi5) alone or human GPCR135 (GPCR135) alone, or co-transfected by human GPCR135 and Gqi5 (GPCR135/Gqi5), were used for Ca^2+ mobilization assays under stimulation of relaxin3 as the ligand. Ligand-stimulated intracellular mobilization was monitored using FLIPR.

Molecule: C=C[C@@]1(C)CC(=O)[C@]2(O)[C@@]3(C)[C@@H](O)CCC(C)(C)[C@@H]3[C@H](O)[C@H](OC(C)=O)[C@@]2(C)O1 [forskalin, reference compound]
- intracellular concentration of cAMP (GPCR135 [1]; in the absence of GPCR135): increases
- intracellular concentration of cAMP (GPCR135 [1]; in the presence of GPCR135): increases

Molecule: ^125I-relaxin3: human relaxin3 labeled with iodine-125, used as radioligand
- specific binding to GPCR135 (rat GPCR135): specifically binds
- specific binding to GPCR135 (mouse GPCR135): specifically binds
- specific binding to GPCR135 (GPCR135 [2]): specifically binds

Molecule: angiotensin II (DRVYIHPF; Angiotensin-2; UniProt P01019 25-32, looked up)
- binding sites on GPCR135 (GPCR135 [3]): did not produce any binding sites

Molecule: relaxin3: secreted protein consisting of relaxin3 polypeptide chains A and B linked by disulfide bridges; recombinant human, natural ligand of GPCR135
- activation of LGR7 (LGR7): activates
- stimulation of GTPγS binding (GPCR135 [4]): potently stimulated
- Ca2+ mobilization (GPCR135 [5]): stimulates
- forskalin-stimulated cAMP accumulation (GPCR135 [1]; cells expressing GPCR135): inhibits
- intracellular concentration of cAMP (GPCR135 [1]; in the presence of GPCR135): decreases
